Measurements published in the supplement of paper PMC11136658.

System: peptide library, one residue held at a place counted from the Y acceptor
Assay: relative phosphorylation of the sub-library (ratio to the mean residue at this position); higher = residue favoured
How it was run: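 Each value expresses phosphorylation relative to the mean randomized residue. Purified recombinant kinases acted for 90 min in 384-well plates on biotinylated Tyr-centred peptide library mixtures, with one residue fixed at one position from −5 to +5, in the presence of 50 μM ATP with γ-32P-ATP. Signals were read by phosphorimaging after capture on streptavidin membranes, then normalized per position to the sum of the 18 randomized residues (16 in the Ser/Thr-free library) and multiplied by that number.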

Sequence of LCK, construct: Full length, human (P06239 whole entry, looked up): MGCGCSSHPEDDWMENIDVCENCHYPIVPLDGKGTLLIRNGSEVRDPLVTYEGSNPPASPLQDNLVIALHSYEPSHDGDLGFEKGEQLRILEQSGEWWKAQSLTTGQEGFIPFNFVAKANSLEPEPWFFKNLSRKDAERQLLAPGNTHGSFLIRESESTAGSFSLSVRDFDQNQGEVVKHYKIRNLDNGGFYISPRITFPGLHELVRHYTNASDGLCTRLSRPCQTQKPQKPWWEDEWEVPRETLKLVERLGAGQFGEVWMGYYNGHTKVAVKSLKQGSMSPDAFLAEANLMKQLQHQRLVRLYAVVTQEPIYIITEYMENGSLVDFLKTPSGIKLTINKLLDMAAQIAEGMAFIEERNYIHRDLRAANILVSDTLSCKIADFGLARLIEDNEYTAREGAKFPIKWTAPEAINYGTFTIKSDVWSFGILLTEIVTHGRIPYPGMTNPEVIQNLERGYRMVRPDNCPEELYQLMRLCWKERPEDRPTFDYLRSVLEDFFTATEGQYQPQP
Sequence of LIMK1, construct: aa285-end, human (P53667 285-647, looked up): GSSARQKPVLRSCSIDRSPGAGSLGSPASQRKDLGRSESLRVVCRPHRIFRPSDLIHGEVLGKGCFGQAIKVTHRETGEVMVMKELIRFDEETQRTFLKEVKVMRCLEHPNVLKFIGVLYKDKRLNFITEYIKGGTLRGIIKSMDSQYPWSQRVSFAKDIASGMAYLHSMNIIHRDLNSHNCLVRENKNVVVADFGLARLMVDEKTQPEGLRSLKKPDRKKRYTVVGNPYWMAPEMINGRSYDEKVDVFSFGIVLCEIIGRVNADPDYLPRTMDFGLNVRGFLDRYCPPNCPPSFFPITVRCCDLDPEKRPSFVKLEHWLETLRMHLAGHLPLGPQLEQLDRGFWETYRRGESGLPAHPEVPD

LIMK1, construct: aa285-end, human (from UniProt P53667)
relative phosphorylation
Details	at +1	at +2	at +3	at +4	at +5	at -1	at -2	at -3	at -4	at -5
A fixed	0.862	0.869	0.944	1.08	0.821	0.957	0.937	0.905	1.05	0.934
D fixed	0.776	0.662	0.6	0.613	0.56	0.811	0.735	0.778	0.812	0.737
E fixed	0.728	0.669	0.66	0.544	0.532	0.672	0.689	0.68	0.763	0.813
F fixed	0.879	1.2	1.21	1.23	1.18	0.849	1.08	1.21	1.02	1.1
G fixed	1.22	0.739	0.954	0.989	0.991	1.31	1.02	1.04	1.08	1.02
H fixed	1.06	1.07	1.11	1.1	1.06	1.06	1.02	0.955	0.953	1.09
I fixed	0.769	0.852	0.813	0.902	0.748	0.753	0.853	0.667	0.769	0.946
K fixed	1.35	1.49	1.4	1.37	1.46	1.28	1.33	1.16	1.3	1.14
L fixed	0.738	0.856	0.829	1	0.825	0.782	0.822	0.865	0.833	0.876
M fixed	0.802	0.926	0.996	0.973	0.836	0.793	0.833	0.801	0.837	0.843
N fixed	1.09	0.92	0.945	0.797	0.838	1.01	1.26	1.29	0.885	0.902
P fixed	1.11	0.849	0.97	0.87	0.89	1.12	1.09	1.02	1.06	0.935
Q fixed	0.961	0.921	0.865	0.74	0.849	0.888	0.846	1.13	1	0.858
R fixed	1.6	1.63	1.39	1.24	1.43	1.53	1.31	1.42	1.41	1.34
V fixed	0.713	0.979	0.782	0.907	0.754	0.81	0.86	0.819	0.807	0.837
W fixed	1.34	1.37	1.54	1.64	2.22	1.38	1.31	1.26	1.42	1.62
pThr fixed	0.753	0.513	0.519	0.596	0.409	0.704	0.664	0.635	0.96	0.703
pTyr fixed	0.761	0.655	0.689	0.61	0.518	1.61	0.887	1.34	0.667	0.744

LCK, construct: Full length, human (from UniProt P06239)
relative phosphorylation
Details	at +1	at +2	at +3	at +4	at +5	at -1	at -2	at -3	at -4	at -5
A fixed	1.69	1.08	0.69	0.928	1.14	0.73	1.02	0.875	1.08	1.06
D fixed	1.03	0.616	0.245	0.484	0.691	0.877	1.4	1.77	1.4	1.28
E fixed	1.58	1.07	0.211	0.557	0.532	1.22	1.68	2.02	1.63	1.13
F fixed	0.615	0.776	1.65	0.931	1.28	1.06	0.572	0.895	0.822	0.96
G fixed	2.95	0.934	0.904	1.18	1.14	0.416	1.35	1.1	1.25	1.17
H fixed	0.786	0.711	1.06	1.02	0.844	0.757	0.99	1.01	0.975	0.962
I fixed	0.738	0.932	1.92	0.85	0.639	2.81	0.663	0.549	0.792	0.836
K fixed	0.271	0.936	0.752	1.66	1.07	0.308	0.641	0.562	0.665	0.852
L fixed	0.686	0.754	1.67	0.887	0.942	1.93	0.796	0.731	0.921	0.866
M fixed	1.37	0.795	0.932	1.03	0.91	0.894	0.726	0.73	0.792	0.878
N fixed	0.54	0.934	0.429	0.801	0.92	0.431	1.25	1.42	1.11	1.24
P fixed	0.225	1.33	0.84	1.07	1.31	0.833	1.32	1.01	1.2	1.23
Q fixed	0.979	0.954	0.45	1	0.937	0.538	1.2	1.01	1.19	1.15
R fixed	0.438	1.2	1.55	1.69	1.34	0.238	0.696	0.637	0.82	0.98
S fixed	1.11	1.31	0.651	0.911	1.28	0.405	1.22	0.982	0.885	0.897
T fixed	0.821	1.36	0.697	0.849	0.968	1.32	0.982	0.892	0.735	0.841
V fixed	0.868	1.2	1.33	0.846	0.89	2.65	0.749	0.693	0.749	0.703
W fixed	1.3	1.11	2.02	1.3	1.16	0.584	0.748	1.11	0.989	0.971
pThr fixed	0.786	1.27	0.195	0.27	0.448	3.03	1.47	1.18	1.13	1.17
pTyr fixed	1.22	1.24	0.303	0.289	0.434	1.21	1.16	1.59	1.64	0.861
